According to PMC2702000 (PLoS Pathogens, 2009):

Key:
AUC = molecular target: the molecule itself; experiment: AUC
[1] = molecular target: the molecule itself; experiment: solution NMR structure (inter-monomer NOEs, PRE, RDCs)

EETGTLIVNSVLLFLAFVVFLLVTLAILTALRLCAY [synthetic ETM spanning residues 7-42 of SARS-CoV E]
stoichiometry N (AUC): 5

B1: full length SARS-CoV E protein (natural protein)
chain: MYSFVSEETGTLIVNSVLLFLAFVVFLLVTLAILTALRLCAYCCNIVNVSLVKPTVYVYSRVKNLNSSEGVPDLLV
stoichiometry N (AUC): 5

ETGTLIVNSVLLFLAFVVFLLVTLAILTALR [ETM peptide, transmembrane domain of SARS-CoV E (residues 8-38)]
binding result [1]: binds
